According to PMC2957524:

System: O=C(O)C(=O)CC1(C(=O)O)C=CC(O)C=C1
Test: purified protein
Type: biochemical, Planktothrix agardhii
Details: non-aromatizing decarboxylation to endocyclic diene H2HPP

**Q.** For “AerD (Planktothrix agardhii NIVA-CYA 126/8)”, which Km is on record?
**A.** 170 ± 3 µM

**Q.** What about the kcat of the same substance?
**A.** 245 ± 1 min⁻¹
